Test [1] concerns the target BG505 SOSIP.664 envelope trimer protein (HIV-1 clade A, BG505). Description: BLI, antibody on anti-human Fc biosensor, Env in solution, global fit. (In general: BLI is a label-free optical method that tracks binding on a fibre tip over time.)
In test [2] the target is clade C HIV-1 1086.c ENV SOSIP trimer (HIV-1 clade C, 1086.c). Described as above.
Test [3] concerns the target BG505 SOSIP.664 envelope trimer protein (HIV-1 clade A, BG505). Kind of test: BLI, antibody on anti-human Fc biosensor, Env protein as analyte.
Test [4] has as its target clade C HIV-1 1086.c ENV SOSIP trimer (HIV-1 clade C, 1086.c). The test is described as above.
Test [5] has as its target BG505 T332N gp160 on pseudo-typed virus (HIV-1 clade A, BG505).
The target in test [6] is 1086.c gp160 wt on pseudo-typed virus (HIV-1 clade C, 1086.c).
Test [7] deals with HIV-1 Env 1086.C D7gp120 envelope glycoprotein (HIV-1 clade C, 1086.c). Kind of test: BLI, antibody on anti-human Fc biosensor, Env protein as analyte.
Test [8] concerns the target HIV-1 Env 1086.C gp140C envelope glycoprotein (HIV-1 clade C, 1086.c). The test is described as above.
Test [9] concerns the target clade C HIV-1 1086.c ENV SOSIP trimer (HIV-1 clade C, 1086.c). The description is as above. The source holds these as a separate data set.
The target in test [10] is HIV-1 Env 1086.C D7gp120 envelope glycoprotein (HIV-1 clade C, 1086.c). Description: BLI, antibody on anti-human Fc biosensor, Env in solution, global fit.
Test [11] deals with HIV-1 Env 1086.C gp140C envelope glycoprotein (HIV-1 clade C, 1086.c). Described as above.
Test [12] concerns the target clade C HIV-1 1086.c ENV SOSIP trimer (HIV-1 clade C, 1086.c). The test is described as above. This is another data set of the same source.
The target of test [13] is 1086.c gp160 wt on pseudo-typed virus (HIV-1 clade C, 1086.c). Description: cell-based or functional assay.
For test [14], the target named is clade C HIV-1 1086.c ENV SOSIP trimer (HIV-1 clade C, 1086.c). Kind of test: BLI, antibody on anti-human Fc biosensor, Env protein as analyte; the sheet has this in the 1086.C SOSIP rows, text paragraph 67 gives this KD for BG505 SOSIP.664.
Test [15] shares this target. Description: BLI, antibody on anti-human Fc biosensor, Env protein as analyte; text paragraph 65 prints 0.12 nM.
In test [16] the target is BG505 SOSIP.664 envelope trimer protein (HIV-1 clade A, BG505). Description: BLI, antibody on anti-human Fc biosensor, Env protein as analyte; text paragraph 65 prints <1.03x10^-3 nM.

Read-outs that look alike come from different tables or passages of the source.

On to CH106 (antibody), for which the Kd stood at 0.00351 nM in test [1] and 5.33 nM in test [2]. Further, the off-rate constant (koff) in [3] is less than 1e-07 s⁻¹; in [4], 6.64e-05 s⁻¹. In addition, the results for the kon in test [3] and in test [4] were 13700 M⁻¹ s⁻¹ and 12500 M⁻¹ s⁻¹, respectively. Besides, the neutralisation IC50, pseudo-typed virus on TZM-bl cells in test [5] is more than 4 µg/mL; in [6], 3.63 µg/mL.

With VRC-CH31 (antibody), the neutralisation IC50, pseudo-typed virus on TZM-bl cells was determined as 0.011 µg/mL in test [5] and 2.16 µg/mL in test [6].

For CH58 (antibody), the Kd is less than 0.001 nM in test [2], 9.31 nM in test [10], 0.22 nM in test [11] and less than 0.00103 nM in [12]. The kon in test [4] came out at 680000 M⁻¹ s⁻¹; in test [7] it was 129000 M⁻¹ s⁻¹; in [8] it was 56800 M⁻¹ s⁻¹; in [9], 680000 M⁻¹ s⁻¹. Besides, the koff in [7] was 0.0012 s⁻¹; in [8] it was 1.25e-05 s⁻¹; in test [9], less than 1e-07 s⁻¹.

With PGT126 (antibody), the Kd in test [1] was less than 0.001 nM; in test [2], 0.37 nM. Also, the koff was less than 1e-07 s⁻¹ in test [3] and 0.000462 s⁻¹ in test [4]. Besides, the kon in test [3] amounted to 268000 M⁻¹ s⁻¹; in [4], 1.26e+06 M⁻¹ s⁻¹. Also, the neutralisation IC50, pseudo-typed virus on TZM-bl cells in test [5] turned out to be 0.006 µg/mL.

In the case of 2G12 (antibody), the equilibrium dissociation constant (Kd) in test [1] was less than 0.001 nM; in test [2], 0.07 nM. In addition, the koff in test [3] stood at 4.83e-08 s⁻¹; in test [4] it was 5.61e-05 s⁻¹. Moreover, the kon turned out to be 254000 M⁻¹ s⁻¹ in [3] and 821000 M⁻¹ s⁻¹ in test [4]. The substance further had a neutralisation IC50, pseudo-typed virus on TZM-bl cells in test [5] of 0.29 µg/mL.

Consider PGT128 (antibody), for which the Kd was less than 0.001 nM in test [1] and 0.35 nM in test [2]. In addition, the koff in test [3] was less than 1e-07 s⁻¹; in test [4] it was 0.000414 s⁻¹. The kon in test [3] was determined as 78600 M⁻¹ s⁻¹; in test [4] it was 1.18e+06 M⁻¹ s⁻¹. Moreover, the neutralisation IC50, pseudo-typed virus on TZM-bl cells in test [5] is 0.003 µg/mL.

On to 3869 (antibody), for which the Kd in [1] was 0.002 nM; in test [2], less than 0.001 nM. Further, the koff in test [3] is 4.83e-08 s⁻¹; in [4], less than 1e-07 s⁻¹. Also, the on-rate (kon) in test [3] amounted to 24200 M⁻¹ s⁻¹; in test [4], 2.56e+06 M⁻¹ s⁻¹. The substance further had a neutralisation IC50, pseudo-typed virus on TZM-bl cells in test [6] of more than 4 µg/mL.

Take PGT121 (antibody): the Kd in test [1] is 0.15 nM; in test [2], 0.17 nM. The koff in test [3] amounted to 5.35e-06 s⁻¹; in test [4] it was 7.93e-05 s⁻¹. Besides, the kon in test [3] was determined as 34900 M⁻¹ s⁻¹; in [4], 460000 M⁻¹ s⁻¹. The substance also yielded a neutralization of pseudotyped virus in TZM-bl cells, IC50 in [13] of less than 0.001 µg/mL. The neutralisation IC50, pseudo-typed virus on TZM-bl cells in test [5] was 0.003 µg/mL.

As for N6 (antibody), the Kd in test [1] is 0.00114 nM; in [2], less than 0.001 nM. Further, the koff in test [3] and in test [4] was less than 1e-07 s⁻¹ throughout. Moreover, the kon in [3] was determined as 42200 M⁻¹ s⁻¹; in test [4], 52300 M⁻¹ s⁻¹. The neutralisation IC50, pseudo-typed virus on TZM-bl cells in [5] was found to be 0.031 µg/mL; in test [6] it was 0.023 µg/mL.

PG09 (antibody): the Kd in test [1] was 2.1 nM; in test [2], 12.4 nM. Further, the koff was 0.0001 s⁻¹ in test [3] and 0.000475 s⁻¹ in [4]. For the same substance, the figures for the kon in test [3] and in [4] were 47600 M⁻¹ s⁻¹ and 38200 M⁻¹ s⁻¹, respectively. In test [5], this substance came in with a neutralisation IC50, pseudo-typed virus on TZM-bl cells of 0.02 µg/mL.

3BNC117 (antibody): the Kd came out at 0.00108 nM in test [1] and 0.3 nM in [2]. Besides, the figures for the koff in test [3] and in test [4] were less than 1e-07 s⁻¹ and 3.92e-05 s⁻¹, respectively. In addition, the kon in test [3] is 44700 M⁻¹ s⁻¹; in [4], 132000 M⁻¹ s⁻¹. Moreover, the neutralisation IC50, pseudo-typed virus on TZM-bl cells in test [5] was determined as 0.007 µg/mL; in test [6], 0.21 µg/mL.

For the substance 10-1074 (antibody), in test [1], the Kd is less than 0.001 nM. Moreover, in test [3], the off-rate constant (koff) is less than 1e-07 s⁻¹ and the kon was found to be 48600 M⁻¹ s⁻¹. Besides, the neutralisation IC50, pseudo-typed virus on TZM-bl cells in test [5] is 0.003 µg/mL.

In the case of HJ16 (antibody), the Kd in test [1] turned out to be 1.29 nM; in [2] it was 3.59 nM. Also, the results for the koff in test [3] and in [4] were 0.000128 s⁻¹ and 0.000151 s⁻¹, respectively. Also, the kon worked out at 99500 M⁻¹ s⁻¹ in test [3] and 42200 M⁻¹ s⁻¹ in test [4]. The results for the neutralisation IC50, pseudo-typed virus on TZM-bl cells in [5] and in test [6] were more than 4 µg/mL and 3.82 µg/mL, respectively.

For VRC01 (antibody), the figures for the Kd in test [1] and in test [2] were 0.0021 nM and less than 0.001 nM, respectively. Moreover, the koff in test [3] and in test [4] was less than 1e-07 s⁻¹ in each case. For the same substance, the kon in test [3] was 23200 M⁻¹ s⁻¹; in test [4], 72800 M⁻¹ s⁻¹. Besides, the neutralisation IC50, pseudo-typed virus on TZM-bl cells amounted to 0.06 µg/mL in [5] and 0.49 µg/mL in [6].

Take F105 (antibody): the figures for the Kd in [1] and in [2] were 0.0129 nM and 0.00172 nM, respectively. Besides, the koff in [3] and in test [4] was less than 1e-07 s⁻¹ each time. The kon is 3750 M⁻¹ s⁻¹ in [3] and 30400 M⁻¹ s⁻¹ in test [4].

Take PG16 (antibody): the Kd in test [1] turned out to be 7.35 nM. In [3], this substance showed a koff of 0.000358 s⁻¹ and a kon of 48600 M⁻¹ s⁻¹. This substance had a neutralisation IC50, pseudo-typed virus on TZM-bl cells in test [5] of 0.011 µg/mL.

For the substance PGT145 (antibody), the Kd turned out to be 2.57 nM in test [1] and 1.22 nM in test [2]. The results for the koff in [3] and in test [4] were 0.000482 s⁻¹ and 0.00194 s⁻¹, respectively. In addition, the association rate constant (kon) in [3] is 187000 M⁻¹ s⁻¹; in [4], 1.59e+06 M⁻¹ s⁻¹. In test [5], this substance showed a neutralisation IC50, pseudo-typed virus on TZM-bl cells of less than 0.001 µg/mL.

For 35O22 (antibody), the dissociation constant Kd in test [1] and in test [14] was 0.0013 nM in each case. For the same substance, the neutralisation IC50, pseudo-typed virus on TZM-bl cells in test [6] was more than 4 µg/mL.

In the case of IgG1 b12 (antibody), the Kd was 0.12 nM in test [2] and 0.122 nM in test [15]. Also, the koff in [4] came out at 9.85e-05 s⁻¹. This substance also yielded a kon in [4] of 811000 M⁻¹ s⁻¹. Further, in [6], the neutralisation IC50, pseudo-typed virus on TZM-bl cells was more than 4 µg/mL.

On to CH59 (antibody), for which the koff in test [7] is 0.000105 s⁻¹; in test [8], less than 1e-07 s⁻¹; in test [9], less than 1e-07 s⁻¹. The kon stood at 57900 M⁻¹ s⁻¹ in test [7], 10200 M⁻¹ s⁻¹ in [8] and 63700 M⁻¹ s⁻¹ in test [9]. In test [6], this substance returned a neutralisation IC50, pseudo-typed virus on TZM-bl cells of more than 4 µg/mL. Moreover, the Kd is 1.81 nM in [10], 0.0012 nM in test [11] and less than 0.001 nM in test [12].

Substance VRC03 (antibody) displayed a Kd in test [1] of less than 0.00103 nM. In test [3], the koff is less than 1e-07 s⁻¹ and the kon worked out at 78600 M⁻¹ s⁻¹. Further, the Kd in test [16] was less than 0.001 nM. The neutralisation IC50, pseudo-typed virus on TZM-bl cells in [5] worked out at 2.83 µg/mL.

Take CD4-IgG2 (Fc fusion): the neutralization of pseudotyped virus in TZM-bl cells, IC50 in [13] turned out to be 1.72 µg/mL. Also, the neutralisation IC50, pseudo-typed virus on TZM-bl cells in test [5] was more than 4 µg/mL.

By Kd is commonly meant a measure of binding affinity in units of concentration. A higher Kd goes with weaker binding. As a reminder, the koff is the rate constant with which the complex falls apart. The low end stands for a long-lived complex, the high end for a short-lived complex. By kon is commonly meant the second-order rate constant of association. Read a low kon as slow association.

The record behind these values is patent US20240181040A1.
